In patent publication US20230374132A1 (Innovent, published 2023):
Where a chain is given by its changes, count along the chain named. Numbers in names are those of the source. Where two headings read alike, the source gives them in different places. Blank lines part the entries; values can stand above or below the binder they belong to.

Assays:
[1] = molecular target: T1, human CD3 E&D complex protein (Sino Biological Inc., CT026H0323H) (human, UniProt P07766 23-126; P04234 22-105); test: BLI, antibody on sensor
T1 construct: bought heterodimer; also called human CD3 protein (CT026H0323H)
T1 sequence (P07766 23-126, chain 1 of 2): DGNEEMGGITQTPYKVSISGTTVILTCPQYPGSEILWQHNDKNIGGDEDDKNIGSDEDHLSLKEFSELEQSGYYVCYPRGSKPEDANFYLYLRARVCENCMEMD
T1 sequence (P04234 22-105, chain 2 of 2): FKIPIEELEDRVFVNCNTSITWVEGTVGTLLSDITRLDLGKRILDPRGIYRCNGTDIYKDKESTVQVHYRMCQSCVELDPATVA

[2] = molecular target: T2, human CD3E&G complex (Sino Biological Inc., CT041-H0305H) (human, UniProt P07766 23-126; P09693 23-116); test: BLI, antibody on sensor
T2 construct: bought heterodimer; also called human CD3E&G antigen
T2 sequence (P07766 23-126, chain 1 of 2): as the sequence (P07766 23-126, chain 1 of 2) above
T2 sequence (P09693 23-116, chain 2 of 2): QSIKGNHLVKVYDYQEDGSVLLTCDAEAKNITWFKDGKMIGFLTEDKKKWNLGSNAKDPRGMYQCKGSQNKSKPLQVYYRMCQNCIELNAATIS

[3] = molecular target: T3, human CD3 complex on Jurkat cells (human, UniProt P07766 23-207; P04234 22-171; P09693 23-182); test: flow cytometry on Jurkat cells (human CD3 complex), 'Jurkat cell line binding', Example 3.2 [cont) D]
T3 construct: whole, on cells; natural CD3 complex of Jurkat T cells (also used here for CD3 on T cells of human PBMC); also called human CD3 at the cell level; CD3 on T cells
T3 sequence (P07766 23-207, chain 1 of 3): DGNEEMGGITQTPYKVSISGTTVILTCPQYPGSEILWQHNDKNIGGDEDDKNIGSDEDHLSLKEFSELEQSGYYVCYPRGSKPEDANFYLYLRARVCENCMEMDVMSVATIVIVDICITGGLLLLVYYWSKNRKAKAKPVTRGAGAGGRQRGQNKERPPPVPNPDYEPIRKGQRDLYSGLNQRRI
T3 sequence (P04234 22-171, chain 2 of 3): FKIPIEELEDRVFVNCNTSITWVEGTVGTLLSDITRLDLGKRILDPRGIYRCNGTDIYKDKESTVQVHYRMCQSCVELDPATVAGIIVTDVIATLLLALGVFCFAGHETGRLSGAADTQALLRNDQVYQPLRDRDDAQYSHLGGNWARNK
T3 sequence (P09693 23-182, chain 3 of 3): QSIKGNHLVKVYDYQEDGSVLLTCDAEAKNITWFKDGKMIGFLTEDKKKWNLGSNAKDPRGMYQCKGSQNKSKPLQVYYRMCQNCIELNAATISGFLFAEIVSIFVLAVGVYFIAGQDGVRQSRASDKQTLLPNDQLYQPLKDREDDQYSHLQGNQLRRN
Description: Jurkat cells are immortalized human T lymphocytes, which express human CD3 complex. The cell line is used to detect the binding of the antibody to the cell. The detailed operation was as follows: Jurkat cells (Promega, J1621) was inoculated into U-shaped 96-well plate, 2×10⁵ for each well. The antibodies to be detected at a series of concentration gradients (the initial concentration of antibody molecule is 500 nM, 3 folds serial dilution) was added into the corresponding cell well, incubated at 4° C. for 30 minutes, and then PBS was used to wash out the unbound part. The sheep anti-human Fc PE fluorescent second antibody (Southern Biotech, J2815-5H87B) was added, then incubated at 4° C. for 15 minutes. and detected by flow cytometry ([…] BD). […] Some of these antibodies were selected to make a further binding curve at cell level.

[4] = molecular target: T1, human CD3 E&D complex protein (Sino …); test: BLI, antibody on sensor; remark: listed apart in the source
Description: (§1) 100 μl SD buffer, various antibodies, human CD3 E&D complex protein (Sino Biological Inc., CT026H0323H), and cynomolgus monkey CD3 E&D complex protein (Sino Biological Inc., CT032-00323H) were added into 96-well black polystyrene semi-quantitative micro-well plate (Greiner, 675076) respectively. Fortebio Octet Red 96 was used for detection, and the sensor position was selected according to the sample position. The setting parameters of the instrument are as follows: operation steps: Baseline, Loading-1 nm, Baseline, Association and Dissociation; the operation time of each step depends on the speed of sample association and dissociation. The rotational speed is 1000 rpm and the temperature is 30° C. ForteBio Octet analysis software was used to analyze KD value.

[5] = molecular target: T4, cynomolgus monkey CD3 E&D complex protein (Sino Biological Inc., CT032-00323H) (cynomolgus monkey, UniProt Q95LI5 22-117; Q95LI8 22-105); test: BLI, antibody on sensor
T4 construct: bought heterodimer
T4 sequence (Q95LI5 22-117, chain 1 of 2): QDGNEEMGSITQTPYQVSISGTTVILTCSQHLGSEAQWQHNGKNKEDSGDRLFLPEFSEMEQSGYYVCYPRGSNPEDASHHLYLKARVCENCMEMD
T4 sequence (Q95LI8 22-105, chain 2 of 2): as the sequence (P04234 22-105, chain 2 of 2) above, with I5V, N15K, I20V, S32T, D33N, I34N, T64A, S74N, V83L counted along it
Description: as §1

[6] = molecular target: T4, cynomolgus monkey CD3 E&D complex …; test: SPR, antigen on chip
Description: (§2) The CD3 equilibrium dissociation constant (KD) of Her2×CD3 bispecific antibody was determined using Biacore (GE Healthcare, T200), and the specific method is as follows:
(§3) The human CD3E&G antigen (Sino Biological Inc., CT041-H0305H) and Cynomolgus monkey CD3E&D antigen protein (Sino Biological Inc., CT032-00323H) were coupled to the chip surface. Afterwards, the affinity and kinetic constants were obtained by detecting the binding and dissociation between the chip surface antigen and the antibody in the mobile phase. The method includes chip preparation and affinity detection. 10-fold diluted 10×HBS-EP+(BR-1006-69, GE Healthcare) was used as the experimental buffer during measurement. […] After coupling, 1 M ethanolamine was injected to block the remaining activation sites. Affinity detection cycle is carried out for each concentration of antibody, and each cycle includes binding to antibody with this concentration and chip regeneration. The antibody after serial dilution (Her2-sp34.24: initial concentration 32 nM, 2 folds serial dilution; Her2-sp34.87: initial concentration 200 nM, 2 folds serial dilution; Her2-sp34.80, Her2-sp34.97, Her2-sp34.99, Her2-sp34.101: initial concentration 800 nM, 2 folds serial dilution; all dilute 5 concentration points), flows through the chip surface from low concentration to high concentration at 30 μl/min of the flow rate, with a binding time of 180 s and a dissociation time of 600 s. Finally, 10 mM Glycine pH 1.5 (BR-1003-54, GE Healthcare) was used to regenerate the chip. The data results were analyzed using the Biacore T200 analysis software (version 3.1), and the analysis model used was 1:1 combined model for dynamic analysis.

[7] = molecular target: T2, human CD3E&G complex (Sino Biological …); test: SPR, antigen on chip
Description: as §2, §3

B2: hzsp34.33 (antibody, human IgG1, kappa, L234A L235A, V domains shown)
VH: EVQLVESGGGLVQPGGSLKLSCAASGFTFNTYAMNWVRQASGKGLEWVGRIRSKYNNYATYYADSVKDRFTISRDDSKSTLYLQMNSLKTEDTAVYYCARHGNFGNSYVSWFAYWGQGTTVTVSS
VL: EIVMTQSPATLSVSPGERATLSCRSSTGAVTTSNYANWVQQKPGQAPRLLIGGTNKRAPGVPARFSGSGSGTEFTLTISSLQSEDFAVYYCALWYSNLWVFGQGTKLTVLR
notes: IgG1 L234A L235A, kappa
- binding result [4]: no binding
- binding result [5]: no binding

B3: Her2-hzsp34.24 (bispecific antibody, IgG1, V domains shown)
VH 1: not shown
VL 1: not shown
VH 2: B2 VH with N106Q
VL 2: QAVVTQEPSLTVSPGGTVTLTCRSSTGAVTTSNYANWVQQKPGQAPRGLIGGTNKRAPGVPARFSGSLLGDKAALTLLGAQPEDEAEYYCALWYSNLWVFGQGTKLTVL
notes: 1+1 trastuzumab x hzsp34.24, IgG1 LALA knob-into-hole; also called Her2-sp34.24; copies: 1 + 1 + 1 + 1
- Kd [6]: 7.2 nM
- koff [6]: 0.008 s⁻¹
- kon [6]: 1.11e+06 M⁻¹ s⁻¹
- Kd [7]: 4.88 nM
- koff [7]: 0.00779 s⁻¹
- kon [7]: 1.6e+06 M⁻¹ s⁻¹

B4: hzsp34.38 (antibody, human IgG1, kappa, L234A L235A, V domains shown)
VH: B2 VH
VL: B2 VL with L49G
notes: IgG1 L234A L235A, kappa
- EC50 [3]: 7.85 nM
- Kd [4]: 12.7 nM
- koff [4]: 0.00505 s⁻¹
- kon [4]: 397000 M⁻¹ s⁻¹
- Kd [5]: 6.36 nM
- koff [5]: 0.00183 s⁻¹
- kon [5]: 288000 M⁻¹ s⁻¹

B5: Her2-hzsp34.80 (bispecific antibody, IgG1, V domains shown)
VH 1: not shown
VL 1: not shown
VH 2: B2 VH with Y32A, N106Q
VL 2: B3 VL 2
notes: 1+1 trastuzumab x hzsp34.80, IgG1 LALA knob-into-hole; also called Her2-sp34.80; copies: 1 + 1 + 1 + 1
- Kd [6]: 1310 nM
- koff [6]: 0.78 s⁻¹
- kon [6]: 596000 M⁻¹ s⁻¹
- Kd [7]: 987 nM
- koff [7]: 0.491 s⁻¹
- kon [7]: 497000 M⁻¹ s⁻¹

B7: Her2-hzsp34.97 (bispecific antibody, IgG1, V domains shown)
VH 1: not shown
VL 1: not shown
VH 2: B2 VH with Y55A, N56G, N57G, N106Q
VL 2: B3 VL 2
notes: 1+1 trastuzumab x hzsp34.97, IgG1 LALA knob-into-hole; also called Her2-sp34.97; copies: 1 + 1 + 1 + 1
- Kd [6]: 327 nM
- koff [6]: 0.177 s⁻¹
- kon [6]: 543000 M⁻¹ s⁻¹
- Kd [7]: 361 nM
- koff [7]: 0.191 s⁻¹
- kon [7]: 528000 M⁻¹ s⁻¹

B10: Her2-hzsp34.87 (bispecific antibody, IgG1, V domains shown)
VH 1: not shown
VL 1: not shown
VH 2: B2 VH with G102Y, N106Q
VL 2: B3 VL 2
notes: 1+1 trastuzumab x hzsp34.87, IgG1 LALA knob-into-hole; also called Her2-sp34.87; copies: 1 + 1 + 1 + 1
- Kd [6]: 242 nM
- koff [6]: 0.035 s⁻¹
- kon [6]: 145000 M⁻¹ s⁻¹
- Kd [7]: 141 nM
- koff [7]: 0.0462 s⁻¹
- kon [7]: 327000 M⁻¹ s⁻¹

Now from value to binder:

- Kd [1]: 0.975 nM
- koff [1]: 0.000234 s⁻¹
- kon [1]: 240000 M⁻¹ s⁻¹
- Kd [2]: 8 nM
- koff [2]: 0.00179 s⁻¹
- kon [2]: 224000 M⁻¹ s⁻¹
- EC50 [3]: 1.25 nM
- Kd [4]: 0.718 nM
- koff [4]: 0.00247 s⁻¹
- kon [4]: 3.44e+06 M⁻¹ s⁻¹
- Kd [5]: 0.738 nM
- koff [5]: 0.000941 s⁻¹
- kon [5]: 1.28e+06 M⁻¹ s⁻¹
B1: hzsp34.24 (antibody, human IgG1, lambda, L234A L235A, V domains shown)
VH: B2 VH with N106Q
VL: QAVVTQEPSLTVSPGGTVTLTCRSSTGAVTTSNYANWVQQKPGQAPRGLIGGTNKRAPGVPARFSGSLLGDKAALTLLGAQPEDEAEYYCALWYSNLWVFGQGTKLTVLG
notes: IgG1 L234A L235A, lambda; parent of the CDR mutants

- binding result [4]: no binding
- Kd [5]: 2.82 nM
- koff [5]: 0.00117 s⁻¹
- kon [5]: 415000 M⁻¹ s⁻¹
B6: hzsp34.28 (antibody, human IgG1, kappa, L234A L235A, V domains shown)
VH: B2 VH
VL: B2 VL with V39Y, G52Y, V61I
notes: IgG1 L234A L235A, kappa

- Kd [6]: 179 nM
- koff [6]: 0.0987 s⁻¹
- kon [6]: 551000 M⁻¹ s⁻¹
- Kd [7]: 159 nM
- koff [7]: 0.101 s⁻¹
- kon [7]: 637000 M⁻¹ s⁻¹
B8: Her2-hzsp34.101 (bispecific antibody, IgG1, V domains shown)
VH 1: not shown
VL 1: not shown
VH 2: B2 VH with N106Q, Y108A, V109A
VL 2: B3 VL 2
notes: 1+1 trastuzumab x hzsp34.101, IgG1 LALA knob-into-hole; also called Her2-sp34.101; copies: 1 + 1 + 1 + 1

- Kd [6]: 1200 nM
- koff [6]: 0.1 s⁻¹
- kon [6]: 83400 M⁻¹ s⁻¹
- Kd [7]: 627 nM
- koff [7]: 0.0817 s⁻¹
- kon [7]: 130000 M⁻¹ s⁻¹
B9: Her2-hzsp34.99 (bispecific antibody, IgG1, V domains shown)
VH 1: not shown
VL 1: not shown
VH 2: B2 VH with F104A, G105Y, N106Q
VL 2: B3 VL 2
notes: 1+1 trastuzumab x hzsp34.99, IgG1 LALA knob-into-hole; also called Her2-sp34.99; copies: 1 + 1 + 1 + 1

- EC50 [3]: 91.9 nM
- Kd [4]: 16.8 nM
- koff [4]: 0.00515 s⁻¹
- kon [4]: 307000 M⁻¹ s⁻¹
- Kd [5]: 15.3 nM
- koff [5]: 0.003 s⁻¹
- kon [5]: 196000 M⁻¹ s⁻¹
B11: hzsp34.40 (antibody, human IgG1, kappa, L234A L235A, V domains shown)
VH: B2 VH with G49A, N106Q
VL: B2 VL with L49G
notes: IgG1 L234A L235A, kappa

- EC50 [3]: 39.2 nM
- Kd [4]: 14.7 nM
- koff [4]: 0.00526 s⁻¹
- kon [4]: 357000 M⁻¹ s⁻¹
- Kd [5]: 10.2 nM
- koff [5]: 0.00248 s⁻¹
- kon [5]: 243000 M⁻¹ s⁻¹
B12: hzsp34.42 (antibody, human IgG1, kappa, L234A L235A, V domains shown)
VH: B2 VH with S79N
VL: B2 VL with L49G, T72D
notes: IgG1 L234A L235A, kappa

- EC50 [3]: 122 nM
- Kd [4]: 18.4 nM
- koff [4]: 0.0065 s⁻¹
- kon [4]: 353000 M⁻¹ s⁻¹
- Kd [5]: 26.9 nM
- koff [5]: 0.00521 s⁻¹
- kon [5]: 194000 M⁻¹ s⁻¹
B13: hzsp34.45 (antibody, human IgG1, kappa, L234A L235A, V domains shown)
VH: B2 VH with G49A, N106Q
VL: B2 VL with L49G, T72D
notes: IgG1 L234A L235A, kappa

- Kd [4]: 6.19 nM
- koff [4]: 0.00396 s⁻¹
- kon [4]: 640000 M⁻¹ s⁻¹
- Kd [5]: 4.73 nM
- koff [5]: 0.00226 s⁻¹
- kon [5]: 479000 M⁻¹ s⁻¹
B14: hzsp34.12 (antibody, human IgG1, lambda, L234A L235A, V domains shown)
VH: B2 VH with S79N
VL: B1 VL with G48T, D71G
notes: IgG1 L234A L235A, lambda
